We go through 1 substance from patent publication US20240369568A1.

Experiment in all cases: SPR, release and stability method, specific binding activity
On the technique in general: SPR reads the build-up and loss of mass on a sensor chip optically.

For assay [1], the target named is BCMA (the 'Antigen' of the SPR antigen binding assay) (human) (UniProt Q02223).
The target of another assay is FcRn (UniProt P55899).
The next assay concerns the target FcγRIIIa (UniProt P08637).

Chain of FcγRIIIa (P08637 17-208 limits assumed): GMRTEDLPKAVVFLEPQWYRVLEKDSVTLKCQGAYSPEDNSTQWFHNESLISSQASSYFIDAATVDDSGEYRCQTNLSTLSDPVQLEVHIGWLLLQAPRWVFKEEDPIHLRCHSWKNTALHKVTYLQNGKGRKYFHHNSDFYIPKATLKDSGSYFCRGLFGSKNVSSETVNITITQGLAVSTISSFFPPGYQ
Chain of BCMA (the 'Antigen' of the SPR antigen binding assay) (human) (Q02223 1-54 limits assumed): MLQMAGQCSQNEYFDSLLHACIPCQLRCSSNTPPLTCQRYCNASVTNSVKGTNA
Chain of FcRn (P55899 24-297 limits assumed, chain 1 of 2): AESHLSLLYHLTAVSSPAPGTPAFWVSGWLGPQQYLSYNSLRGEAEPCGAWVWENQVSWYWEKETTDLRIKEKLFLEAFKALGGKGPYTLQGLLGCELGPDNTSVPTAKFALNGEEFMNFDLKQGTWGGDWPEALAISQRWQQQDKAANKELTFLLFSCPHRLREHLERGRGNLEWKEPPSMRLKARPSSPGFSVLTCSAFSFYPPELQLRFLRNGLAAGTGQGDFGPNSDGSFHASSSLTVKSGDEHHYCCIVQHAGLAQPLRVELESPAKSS
Chain of FcRn (P61769 21-119 limits assumed, chain 2 of 2, further chain): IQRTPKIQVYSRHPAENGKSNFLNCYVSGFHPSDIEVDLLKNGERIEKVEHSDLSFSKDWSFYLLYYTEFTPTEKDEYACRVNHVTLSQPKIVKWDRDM

In assay [1], Control (sample of Table 11) registered an Antigen Binding (%) (specific binding activity) of 96%. Moreover, in the assay with FcRn, the FcRNn Binding (%) (specific binding activity) turned out to be 101%. Also, the FcyRIIIa Binding (%) (specific binding activity) in the assay with FcγRIIIa was found to be 97%.
